From paper PMC9598255

Assays:
Details in all cases: glycan lost; control: wild type
[1] = co-immunostaining with ER marker KDEL, HEK293
[2] = flow cytometry of cell surface TMPRSS2, HEK293
[3] = co-immunostaining with Golgi marker GM130, HEK293

B1: TMPRSS2 (transmembrane protease serine 2): N286Q (protein)
parent chain: MPPAPPGGESGCEERGAAGHIEHSRYLSLLDAVDNSKMALNSGSPPAIGPYYENHGYQPENPYPAQPTVVPTVYEVHPAQYYPSPVPQYAPRVLTQASNPVVCTQPKSPSGTVCTSKTKKALCITLTLGTFLVGAALAAGLLWKFMGSKCSNSGIECDSSGTCINPSNWCDGVSHCPGGEDENRCVRLYGPNFILQVYSSQRKSWHPVCQDDWNENYGRAACRDMGYKNNFYSSQGIVDDSGSTSFMKLNTSAGNVDIYKKLYHSDACSSKAVVSLRCIACGVNLNSSRQSRIVGGESALPGAWPWQVSLHVQNVHVCGGSIITPEWIVTAAHCVEKPLNNPWHWTAFAGILRQSFMFYGAGYQVEKVISHPNYDSKTKNNDIALMKLQKPLTFNDLVKPVCLPNPGMMLQPEQLCWISGWGATEEKGKTSEVLNAAKVLLIETQRCNSRYVYDNLITPAMICAGFLQGNVDSCQGDSGGPLVTSKNNIWWLIGDTSWGSGCAKAYRPGVYGNVMVFTDWIYRQMRADG
localisation_or_trafficking [1]: no change
localisation_or_trafficking [2]: no change
localisation_or_trafficking [3]: no change

B2: TMPRSS2 (transmembrane protease serine 2): N250Q (protein)
parent chain: MPPAPPGGESGCEERGAAGHIEHSRYLSLLDAVDNSKMALNSGSPPAIGPYYENHGYQPENPYPAQPTVVPTVYEVHPAQYYPSPVPQYAPRVLTQASNPVVCTQPKSPSGTVCTSKTKKALCITLTLGTFLVGAALAAGLLWKFMGSKCSNSGIECDSSGTCINPSNWCDGVSHCPGGEDENRCVRLYGPNFILQVYSSQRKSWHPVCQDDWNENYGRAACRDMGYKNNFYSSQGIVDDSGSTSFMKLNTSAGNVDIYKKLYHSDACSSKAVVSLRCIACGVNLNSSRQSRIVGGESALPGAWPWQVSLHVQNVHVCGGSIITPEWIVTAAHCVEKPLNNPWHWTAFAGILRQSFMFYGAGYQVEKVISHPNYDSKTKNNDIALMKLQKPLTFNDLVKPVCLPNPGMMLQPEQLCWISGWGATEEKGKTSEVLNAAKVLLIETQRCNSRYVYDNLITPAMICAGFLQGNVDSCQGDSGGPLVTSKNNIWWLIGDTSWGSGCAKAYRPGVYGNVMVFTDWIYRQMRADG
localisation_or_trafficking [1]: changes
localisation_or_trafficking [3]: no change

B3: TMPRSS2 (transmembrane protease serine 2): N250Q/N286Q (protein)
parent chain: MPPAPPGGESGCEERGAAGHIEHSRYLSLLDAVDNSKMALNSGSPPAIGPYYENHGYQPENPYPAQPTVVPTVYEVHPAQYYPSPVPQYAPRVLTQASNPVVCTQPKSPSGTVCTSKTKKALCITLTLGTFLVGAALAAGLLWKFMGSKCSNSGIECDSSGTCINPSNWCDGVSHCPGGEDENRCVRLYGPNFILQVYSSQRKSWHPVCQDDWNENYGRAACRDMGYKNNFYSSQGIVDDSGSTSFMKLNTSAGNVDIYKKLYHSDACSSKAVVSLRCIACGVNLNSSRQSRIVGGESALPGAWPWQVSLHVQNVHVCGGSIITPEWIVTAAHCVEKPLNNPWHWTAFAGILRQSFMFYGAGYQVEKVISHPNYDSKTKNNDIALMKLQKPLTFNDLVKPVCLPNPGMMLQPEQLCWISGWGATEEKGKTSEVLNAAKVLLIETQRCNSRYVYDNLITPAMICAGFLQGNVDSCQGDSGGPLVTSKNNIWWLIGDTSWGSGCAKAYRPGVYGNVMVFTDWIYRQMRADG
localisation_or_trafficking [1]: changes
